{"source": "paper PMC4104756", "biological_target": "poly-(α,β)-DL-aspartic acid sodium salt", "test": "turbidity at 600 nm + light microscopy", "conditions": "scale: polyHis:polyAsp", "data": [{"substance": "poly-L-histidine (peptide)", "values": [{"measurement": "volume ratio polyHis:polyAsp at maximum turbidity", "result": 0.82}]}]}
